In patent publication US12319747B2, “Methods of using anti-SP17 immunotherapeutics” (Medicovestor, Inc., priority 2023, dated 2025):
“Also recorded” adds a separate entry of the source.

Tested on: 33 normal human tissues
Experiment: Immunohistochemistry on a normal tissue microarray (specificity)
Details: 33 normal tissues, 2-3 human donors per tissue
Protocol: The specificity of the chAB2 antibody for Sp17 was determined with immunohistochemistry on a normal tissue microarray, which consisted of 33 normal tissues obtained from 2-3 human donors per tissue. The normal tissues included brain, eye, adrenal gland, hypophyseal, thyroid, parathyroid, tonsil, thymus, spleen, heart, lung, larynx, esophagus, stomach, small intestine, colon, liver, pancreas, salivary gland, kidney, bone, skeletal, skin, peripheral nerve, mesothelial, breast, ovary, endometrium, cervix, testis, and prostate.

B1: chAB2: mouse-human chimeric anti-Sp17 monoclonal antibody; human VH/VL (SEQ ID NO: 3, 4) in mouse IgG2a heavy chain and mouse kappa light chain (antibody, V domains shown)
VH: QVQLQQSGAEVKKPGSSVKVSCKASGGTFSSYAISWVRQAPGQGLEWMGRIIPILGIANYAQKFQGRVTITADKSTSTAYMELSSLRSEDTAVYYCARPSEEVVAAYGAFDIWGQGTTVTVSS
VL: EIVLTQSPLSLPVRPGEPASISCRASQSLLRSDGFNYLDWYLQKPGQSPQLLVYLGSNRASGVPDRFSGSGSGTDFTLKISRVEAEDVGVYYCMQAVQTPYIFGQGTKLEIK
modifications: mouse IgG2a and kappa constant regions
  binding to normal human tissues / cross-reactivity: bound to testis and did not bind to normal tissues; also recorded: lack detectable cross-reactivity
